Results on one molecule are retold here after patent US20150216933A1, “HEMATOPOIETIC STEM CELL GROWTH FACTOR” (DUKE UNIVERSITY, priority 2008, published 2015).

One assay deals with BM 34−KSL cells. In words: Competitive repopulating unit (CRU) assay of 34−KSL cell progeny cultured with TSF or TSF+PTN (Example 2). It is filed as in vivo, mouse. As for the experimental part:
BM 34^−KSL cells were either isolated for injection into recipient animals, or placed into cultures containing TSF alone, TSF+PTN, TSF+HUBECs+goat IgG, or TSF+HUBECs+goat anti-PTN. Recipient C57BL6 animals (CD45. 2^+) received 950 cGy total body irradiation (TBI) and were then injected via tail vein with limiting doses of BM 34^−KSL cells or their progeny following culture. 1×10^5 host BM MNCs were co-injected-into recipient mice as competitor cells. Multilineage hematologic reconstitution was measured in the PB by flow cytometry over time post-transplant as previously described (Reya, et al, Nature 423:409-14 (2003), Salter et al, Blood 113:2104-7 (2009)). Animals were considered to be engrafted if donor CD45. 1^+ cells were present at ≧1% in the PB (Chute et al, Blood 100:4433-9 (2002), Chute et al, Blood 105: 576-83 (2005), (Chute et al, Proc Natl Acad Sci USA 103, 11707-12 (2006)). CRU estimates were performed using L-Calc software (Stem Cell Technologies) as previously described (Reya, et al, Nature 423:409-14 (2003), Chute et al, Blood 109:2365-72 (2007), Chute et al, Proc Natl Acad Sci USA 103, 11707-12 (2006)).
In order to determine if treatment with PTN could induce functional HSC expansion in culture, competitive repopulating unit (CRU) assays were performed using limiting dilutions of donor CD45. 1^+ BM 34^−KSL cells transplanted into lethally irradiated CD45. 2^+ C57Bl6 mice. Peripheral blood (PB) was collected from primary recipient mice at 4 weeks, 12 weeks and 24 weeks to assess the engraftment of donor CD45. 1^+ cells in the PB of recipient mice. […] 1^+ donor cell engraftment in the PB compared to mice transplanted with the identical dose of day 0 34^−KSL cells and mice transplanted with the progeny of 34^−KSL cells cultured with TSF alone (FIG. 6C, P=0.0008 and P=0.001, respectively). […] The PB engraftment of multilineage donor CD45. […] As expected, the CRU frequency within the progeny of 34^−KSL cells following culture with cytokines alone (TSF) was reduced to 1 in 58 cells (95% CI: 1/31 to 1/108). Conversely, the CRU frequency within the progeny of 34^−KSL cells cultured with TSF+PTN was 1 in 10 cells (95% CI: 1/5 to 1/20). Therefore, the addition of PTN induced a 4-fold increase in HSCs compared to input and a 6-fold increase compared to the progeny of TSF alone. […] 1^+ cell reconstitution at all time points through 24 weeks compared to mice transplanted with day 0 34^−KSL cells or their progeny following culture with TSF alone (FIG. 6F). This corresponded to an increased CRU frequency in the PTN-treated progeny compared to input 34^−KSL cells at all time points. […]

Assay [1] deals with BM stem and progenitor cells. The assay can be described thus: In vivo PTN study in mice irradiated with 700 cGy TBI. Details: species or system mouse. The settings on record: 2 μg PTN intraperitoneally daily x 7 days, day +7. The method, then:
Adult B6.SJL mice received a single fraction of 700 cGy TBI and were then treated either with PBS (saline) or 2 μg PTN intraperitoneally daily ×7 days (beginning 4 hours post irradiation). At day +7, the mice were sacrificed and total viable BM cells were quantified. Flow cytometric analysis was performed to estimate the percentage of BM KSL cells in each femur (Chute at al, Blood 109:2365-72 (2007), Salter et al, Blood 113:2104-7 (2009)). Colony forming cell (CFC) assays were performed using MethoCult M3434 media (Stem Cell Technologies, Vancouver, BC) as previously described (Chute et al, Blood 109:2365-72 (2007), Salter et al, Blood 113:2104-7 (2009)). Long-term cultureinitiating cell (LTC-IC) assays were performed as follows: Murine M2-10B4 (ATCC CRL-1972) BM stromal cells were plated in a 24 well dish and irradiated with 1500 cGy. Limiting dilutions (45,000, 90,000, and 180,000) of BM MNCs from irradiated mice that were treated with either PTN or PBS were added to the stromal cell layers and maintained in MyeloCult M5300 media (Stem Cell Technologies) with weekly half-medium changes for 4 weeks. At 4 weeks, the non-adherent and adherent cells (15,000 cells/dish) were collected and plated into 3×35 mm dishes (MethoCult, StemCell Technologies). After two weeks, hematopoietic colonies were counted and scored.
Since the addition of PTN was sufficient to induce HSC amplification in vitro a test was made as to whether administration of PTN could augment BM HSC regeneration in vivo following injury.

In a further assay the test system is β-catenin. In words: β-catenin assays. The format is cell-based, mouse. The settings on record: 34−KSL cells treated with PTN (data not shown). From the text: In order to determine a potential mechanism through which PTN mediates HSC expansion, an examination was made as to whether PTN altered pathways that are known to be affected by RPTPβ/ζ (Meng et al, Proc Natl Acad Sci USA 97: 2603-8 (2000), Stoica et al, J Biol Chem 276:16772-9 (2001), Landgraf et al, J Biol Chem 283:25036-45 (2008), Deuel et al, Arch Biochem Biophys 397:162-71 (2002)). Canonical PTN signaling occurs via binding and inactivation of RPTPβ/ζ (Meng et al, Proc Natl Acad Sci USA 97: 2603-8 (2000)), which can facilitate the tyrosine phosphorylation of several intracellular substrates, including Akt and β-catenin (Souttou et al, J Biol Chem 272:19588-93 (1997), Gu et al, FEBS Lett 581:382-8 (2007)). […] BM 34^− KSL cells were treated with TSF with and without 100 ng/mL PTN in the presence and absence of 10 μM wortmannin, a PI 3-kinase inhibitor (Souttou et al, J Biol Chem 272:19588-93 (1997)).

B1: PTN: Pleiotrophin, heparin binding growth factor; recombinant human PTN purchased from R&D systems (protein, UniProt P21246 33-168, looked up)
Pleiotrophin: GKKEKPEKKVKKSDCGEWQWSVCVPTSGDCGLGTREGTRTGAECKQTMKTQRCKIPCNWKKQFGAECKYQFQAWGECDLNTALKTRTGSLKRALHNAECQKTVTISKPCGKLTKPKPQAESKKKKKEGKKQEKMLD
Regarding B1, in the assay with BM 34−KSL cells (12 week CRU), the “increase in HSCs compared to input” value turned out to be 4 fold and the “increase in HSCs compared to the progeny of TSF alone” value is 6 fold. The “increase in CD45.1+ donor cell engraftment in the PB” value in the assay on BM 34−KSL cells (12 weeks post-transplant, vs day 0 34−KSL cells and progeny of TSF alone, 100 ng/mL PTN) is on record as above 10 fold. Moreover, the “CRU frequency, fold increased compared to input 34−KSL cells” value in the assay on BM 34−KSL cells (24 weeks post-transplant) was 4 fold. Further, in assay [1], the “increase in BM colony forming cells (CFCs)” value is 2.9 fold, the “increase in long-term culture-initiating cells (LTC-ICs) / BM HSC content” value is 11 fold, the “increase in primitive BM KSL cells compared to controls” value is listed as 5.6 fold and the “increase in total BM cells compared to controls” value came to 2.3 fold. Also, in the assay with β-catenin, the “activated form of β-catenin” value is recorded as “no increase”.
